Reference: US20210190798A1, “METHODS OF QUANTIFYING LIF AND USES THEREOF” (MEDIMMUNE LIMITED, priority 2018, published 2021)

Target: LIF (Homo sapiens, UniProt P15018)
Test: Competitive binding assays against LIF (capture antibody screening)
Protocol: The capture antibody A4 (set forth in SEQ ID NOs: 41 and 42) was determined by screening potential antibodies using competitive binding assays against LIF.

LIF, sequence (P15018 23-202): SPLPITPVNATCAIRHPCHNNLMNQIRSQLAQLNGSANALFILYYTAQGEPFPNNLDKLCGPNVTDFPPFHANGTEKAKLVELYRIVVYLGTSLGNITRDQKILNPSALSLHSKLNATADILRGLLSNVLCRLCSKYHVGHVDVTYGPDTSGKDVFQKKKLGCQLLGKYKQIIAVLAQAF

B1: A4: rabbit monoclonal anti-LIF capture antibody, variable regions SEQ ID NOs: 41 and 42 (antibody, V domains shown)
VH: EQLEESVGDLVKPGASLTLTCTASGFSFSGLYYMCWVRQAPGKGLEWIACIWTGSTDSTYYATWAKGRFTISKTSSTTVTLQMTSLTVADTATYFCARGGGVPGDGYALWGPGTLVTVSS
VL: GTELVMTQTPASVSEPVGGTVTINCQASEDISSNLVWYQQKSGQPPKLLIYDASMLASGVPSRFKGSGSGTQFTLTISDLECADGATYYCQSYYVASSSYFVNGFGGGTEVV
  binding to LIF: high binding
  interference with binding by therapeutic antibody h5D8 or M017C3: did not interfere
